Data as given in the supplement of paper PMC6757056.
± gives the standard deviation of the averaged measurements.

B1: library; a variant is named by its letters at N, in order (parent)
chain: GCUGUCACCGGUGCUUGGUACGUUAUAUUCAGCCGGUCUGAUGAGUCUNNNNNNAGACGAAACAGC

Legend:
[1] = variants of: B1; experiment: normalized RNA/DNA level without ligand (relative to sTRSVctl = 100) (log10 (% of sTRSVctl)); HEK293T overexpressing SLC46A1; higher = less ribozyme self-cleavage, higher mRNA level; details: without (6R,S)-folinic acid; ligand present: no
Outline: (§1)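 Total RNA, extracted with EDTA 72 h after HEK293T cells were transfected with 4 µg per 6-well well of reporter-linked ribozyme switch library plasmids, was reverse-transcribed, amplified, barcoded and sequenced. Ligand, if used, was added 1 h before transfection. RNA level was derived from RNA reads divided by DNA reads and normalized to a spiked-in non-cleaving sequence or to the top sequences. This was multiplied by 100 and log10-transformed, with the top set of 25 sequences and a ≥100 DNA read minimum.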

[2] = variants of: B1; experiment: normalized RNA/DNA level with ligand (relative to sTRSVctl = 100) (log10 (% of sTRSVctl)); HEK293T overexpressing SLC46A1; ligand concentration (+) RNA-Seq: 6 mM; higher = less ribozyme self-cleavage, higher mRNA level; details: with (6R,S)-folinic acid; ligand present: yes
Outline: as §1

Variant	normalized RNA/DNA level without ligand (log10) [1]	normalized RNA/DNA level with ligand (log10) [2]
GCUGUCACCGGUGCUUGGUACGUUAUAUUCAGCCGGUCUGAUGAGUCUUCAAGUAGACGAAACAGC [UCAAGU]	1.984 ± 0.0097	2.02 ± 0.045
GCUGUCACCGGUGCUUGGUACGUUAUAUUCAGCCGGUCUGAUGAGUCUUCAAGGAGACGAAACAGC [UCAAGG]	1.96 ± 0.023	2 ± 0.033
GCUGUCACCGGUGCUUGGUACGUUAUAUUCAGCCGGUCUGAUGAGUCUACAAGUAGACGAAACAGC [ACAAGU]	2.022 ± 0.0081	2.02 ± 0.028
GCUGUCACCGGUGCUUGGUACGUUAUAUUCAGCCGGUCUGAUGAGUCUACAAGCAGACGAAACAGC [ACAAGC]	2.033 ± 0.01	2.02 ± 0.04
GCUGUCACCGGUGCUUGGUACGUUAUAUUCAGCCGGUCUGAUGAGUCUACACAAAGACGAAACAGC [ACACAA]	1.968 ± 0.019	1.98 ± 0.045
GCUGUCACCGGUGCUUGGUACGUUAUAUUCAGCCGGUCUGAUGAGUCUACAAUUAGACGAAACAGC [ACAAUU]	2.018 ± 0.0076	2.044 ± 0.018
GCUGUCACCGGUGCUUGGUACGUUAUAUUCAGCCGGUCUGAUGAGUCUACAAUCAGACGAAACAGC [ACAAUC]	2.043 ± 0.01	2.03 ± 0.031
GCUGUCACCGGUGCUUGGUACGUUAUAUUCAGCCGGUCUGAUGAGUCUCCAAGGAGACGAAACAGC [CCAAGG]	2 ± 0.0033	1.991 ± 0.014
GCUGUCACCGGUGCUUGGUACGUUAUAUUCAGCCGGUCUGAUGAGUCUGCAAGUAGACGAAACAGC [GCAAGU]	2.009 ± 0.012	2.023 ± 0.02
GCUGUCACCGGUGCUUGGUACGUUAUAUUCAGCCGGUCUGAUGAGUCUUCACAAAGACGAAACAGC [UCACAA]	1.982 ± 0.017	1.98 ± 0.025
GCUGUCACCGGUGCUUGGUACGUUAUAUUCAGCCGGUCUGAUGAGUCUUCAAUAAGACGAAACAGC [UCAAUA]	1.9534 ± 0.0012	1.98 ± 0.031
GCUGUCACCGGUGCUUGGUACGUUAUAUUCAGCCGGUCUGAUGAGUCUUCAAUUAGACGAAACAGC [UCAAUU]	2.013 ± 0.011	2.02 ± 0.014
GCUGUCACCGGUGCUUGGUACGUUAUAUUCAGCCGGUCUGAUGAGUCUUCAAUCAGACGAAACAGC [UCAAUC]	2.074 ± 0.0092	2.06 ± 0.048
GCUGUCACCGGUGCUUGGUACGUUAUAUUCAGCCGGUCUGAUGAGUCUCCAAUCAGACGAAACAGC [CCAAUC]	2.028 ± 0.018	1.99 ± 0.049
GCUGUCACCGGUGCUUGGUACGUUAUAUUCAGCCGGUCUGAUGAGUCUCCAAUAAGACGAAACAGC [CCAAUA]	1.994 ± 0.0075	2 ± 0.036
GCUGUCACCGGUGCUUGGUACGUUAUAUUCAGCCGGUCUGAUGAGUCUCCAAUGAGACGAAACAGC [CCAAUG]	1.998 ± 0.0065	2.022 ± 0.019
GCUGUCACCGGUGCUUGGUACGUUAUAUUCAGCCGGUCUGAUGAGUCUCCAAUUAGACGAAACAGC [CCAAUU]	2.039 ± 0.0021	2.05 ± 0.037
GCUGUCACCGGUGCUUGGUACGUUAUAUUCAGCCGGUCUGAUGAGUCUGCAAUUAGACGAAACAGC [GCAAUU]	2.039 ± 0.01	2.04 ± 0.042
GCUGUCACCGGUGCUUGGUACGUUAUAUUCAGCCGGUCUGAUGAGUCUGCAAUCAGACGAAACAGC [GCAAUC]	2.03 ± 0.02	2.03 ± 0.038
GCUGUCACCGGUGCUUGGUACGUUAUAUUCAGCCGGUCUGAUGAGUCUGCAAUAAGACGAAACAGC [GCAAUA]	2.014 ± 0.013	2.03 ± 0.026
GCUGUCACCGGUGCUUGGUACGUUAUAUUCAGCCGGUCUGAUGAGUCUGCAAUGAGACGAAACAGC [GCAAUG]	1.98 ± 0.0061	2.033 ± 0.0084
